Measurements published in patent US20090130105A1 (Biogen, published 2009).

What was measured:
[1] = target: T1, hIGF-1R-Fc mutant SD103 (D461A, V462T) (human, UniProt P08069 31-933); test: SPR, immobilized antibody
T1 construct: not shown: human IgG1 Fc, C-terminal tag
Protocol: Surface plasmon resonance (SPR) experiments were performed on a Biacore 3000 instrument set to 25° C. […] The antibody sensorchip surfaces were prepared by injecting each antibody (diluted 100 μg/mL in 10 mM Acetate, pH 4.0) over EDC/NHS-activated sensorchip surfaces according to the standard protocol of the manufacturer. […] Both hIGF-1R-Fc and mIGF-1R-Fc proteins oligomerize due to the incorporation of two separate homodimeric regions (IGF-1R and IgG1-Fc). […] After, completion of the receptor-Fc loading step, flow rates were elevated to 5 μl/min. […] Dissociation was measured for 7 minutes after the antibody injections were complete. Finally, the flow rate was elevated to 30 μL/min and the chip surfaces were regenerated by 2×10 μL injections of 0.1 M glycine, pH 2.

[2] = target: T2, human IGF-1R on H322M non-small cell lung cancer cells (human, UniProt P08069 31-1367); test: flow cytometry on H322M cells
T2 construct: Endogenous receptor of the tumor cell line; also called cell surface IGF-1R
T2 sequence (P08069 31-1367, stated change not applied): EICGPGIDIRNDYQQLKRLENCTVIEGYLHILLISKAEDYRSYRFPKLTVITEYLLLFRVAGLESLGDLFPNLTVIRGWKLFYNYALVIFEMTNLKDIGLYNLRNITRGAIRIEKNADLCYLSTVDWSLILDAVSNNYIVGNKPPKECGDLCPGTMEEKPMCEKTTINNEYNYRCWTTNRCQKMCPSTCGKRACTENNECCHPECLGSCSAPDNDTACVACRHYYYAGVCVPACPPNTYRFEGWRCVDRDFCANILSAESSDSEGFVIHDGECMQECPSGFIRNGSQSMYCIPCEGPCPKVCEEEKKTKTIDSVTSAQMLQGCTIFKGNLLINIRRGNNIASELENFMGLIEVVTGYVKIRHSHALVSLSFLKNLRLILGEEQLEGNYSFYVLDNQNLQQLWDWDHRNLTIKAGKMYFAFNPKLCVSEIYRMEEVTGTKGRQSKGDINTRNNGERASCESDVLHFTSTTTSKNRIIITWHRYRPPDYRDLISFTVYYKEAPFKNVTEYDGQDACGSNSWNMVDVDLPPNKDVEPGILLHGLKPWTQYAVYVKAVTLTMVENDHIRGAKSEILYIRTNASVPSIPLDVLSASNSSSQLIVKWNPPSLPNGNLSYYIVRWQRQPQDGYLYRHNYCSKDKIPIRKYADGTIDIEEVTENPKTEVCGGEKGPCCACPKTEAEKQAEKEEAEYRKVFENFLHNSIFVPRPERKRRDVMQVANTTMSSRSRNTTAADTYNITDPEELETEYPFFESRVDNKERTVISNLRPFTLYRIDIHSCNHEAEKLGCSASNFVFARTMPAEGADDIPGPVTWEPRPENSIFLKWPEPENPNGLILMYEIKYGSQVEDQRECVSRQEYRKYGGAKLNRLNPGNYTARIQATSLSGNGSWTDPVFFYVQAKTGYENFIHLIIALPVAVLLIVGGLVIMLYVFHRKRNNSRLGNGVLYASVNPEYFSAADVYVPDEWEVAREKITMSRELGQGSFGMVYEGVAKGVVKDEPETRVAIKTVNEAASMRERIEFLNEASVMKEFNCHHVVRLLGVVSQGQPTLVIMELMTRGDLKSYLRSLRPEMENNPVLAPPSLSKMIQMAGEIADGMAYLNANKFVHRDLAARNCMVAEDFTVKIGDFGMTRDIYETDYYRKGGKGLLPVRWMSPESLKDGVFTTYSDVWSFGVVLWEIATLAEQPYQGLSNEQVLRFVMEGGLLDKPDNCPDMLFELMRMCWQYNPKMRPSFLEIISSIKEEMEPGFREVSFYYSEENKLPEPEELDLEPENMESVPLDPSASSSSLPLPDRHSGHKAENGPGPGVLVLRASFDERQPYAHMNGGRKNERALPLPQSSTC
Protocol: (§1) Cell lines were routinely cultured no greater than 20 passages. Flow cyotometric analysis of antibody binding to human cancer cells. Cells were lifted with cell dissociation buffer (Gibco catalog #13151-014), counted, washed and adjusted to 5×10⁶ cells/ml. Cells (2.5×10⁵; 50 uL) were added to each well of a 96-well round bottom plate (Costar #3799). Purified antibodies were tested at a starting concentration of 300 nM with serial half-log dilutions in FACS buffer. FACS buffer used throughout the assay was PBS (without Ca++/Mg++) containing 5% FBS. Samples were incubated on ice for 30 minutes, washed 3× with 200 uL FACS buffer and centrifuged at 1200 rpm for 3 minutes at 4° C. C2B8 (rituximab, IgG1) was used as a negative control. […] Samples were incubated for an additional 30 minutes on ice, shielded from light. Cells were washed as described above and resuspended in 100 μl FACS buffer containing propidium iodide (PI) for dead cell exclusion (BD Pharmingen, catalog# 51-66211E or 556463; use at 1:500 final in FACS buffer). Samples were run in triplicate using the FACSArray flow cytometer (Becton Dickinson) with 5000 live events collected per sample. Data analysis was performed using the GraphPad Prism version 5.0 software (GraphPad Software Inc., 11452 El Camino Real #215, San Diego, Calif. 92130). Results. […]

[3] = target: T3, hIGF-1R-Fc mutant SD015 (H464E) (human, UniProt P08069 31-933); test: SPR (Biacore relative RUmax) and tr-FRET competition
T3 construct: not shown: human IgG1 Fc, C-terminal tag
T3 sequence (P08069 31-933 H494E): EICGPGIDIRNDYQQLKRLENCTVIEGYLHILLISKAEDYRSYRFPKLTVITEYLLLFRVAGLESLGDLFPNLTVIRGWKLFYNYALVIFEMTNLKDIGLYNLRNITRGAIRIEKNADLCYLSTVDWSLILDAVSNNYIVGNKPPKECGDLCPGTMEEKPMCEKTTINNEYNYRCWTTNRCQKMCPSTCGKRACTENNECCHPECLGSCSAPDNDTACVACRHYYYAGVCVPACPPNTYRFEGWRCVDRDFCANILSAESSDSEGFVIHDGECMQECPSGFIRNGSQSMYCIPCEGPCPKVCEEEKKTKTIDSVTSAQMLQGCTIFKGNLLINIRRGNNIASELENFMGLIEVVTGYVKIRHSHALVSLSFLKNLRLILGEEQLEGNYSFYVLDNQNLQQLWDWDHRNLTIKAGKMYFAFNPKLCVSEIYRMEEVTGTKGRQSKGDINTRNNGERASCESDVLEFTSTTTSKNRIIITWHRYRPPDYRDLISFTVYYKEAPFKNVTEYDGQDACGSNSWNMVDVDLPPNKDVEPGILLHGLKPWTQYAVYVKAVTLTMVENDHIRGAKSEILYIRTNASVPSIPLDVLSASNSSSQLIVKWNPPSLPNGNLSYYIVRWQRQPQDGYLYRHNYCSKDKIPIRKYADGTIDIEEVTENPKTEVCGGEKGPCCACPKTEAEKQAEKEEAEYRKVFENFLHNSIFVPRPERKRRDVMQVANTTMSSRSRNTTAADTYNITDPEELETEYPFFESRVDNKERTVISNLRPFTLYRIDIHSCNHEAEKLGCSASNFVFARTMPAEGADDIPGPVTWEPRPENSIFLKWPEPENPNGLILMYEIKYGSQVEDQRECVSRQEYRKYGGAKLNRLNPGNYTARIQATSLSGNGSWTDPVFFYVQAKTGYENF
Protocol: (§2) After, completion of the receptor-Fc loading step, flow rates were elevated to 5 μl/min. […] At the end of each sensorgram, the flow rate was elevated to 30 μl/min and the chip surface was regenerated by 2×10 μL injections of 0.1 M glycine, pH 2.

[4] = target: T2, human IGF-1R on H322M non-small cell …; test: flow cytometry on H322M cells, anti-human Fab PE secondary (FIG. 55A)
Protocol: as §1

sIGF-1R(1-903) = target: T4, sIGF-1R(1-903) (human, UniProt P08069 31-933); test: equilibrium solution-phase SPR, free sIGF-1R(1-903) read on C06 surface
T4 construct: also called soluble IGF-1R ectodomain
T4 sequence (P08069 31-933): as the sequence (P08069 31-933 H494E) above, with E464H counted along it

human IGF-1R(1-903)-Fc [5] = target: T5, human IGF-1R(1-903)-Fc (human, UniProt P08069 31-933); test: IGF-1 blocking ELISA at 1280 nM IGF-1 His on biotinylated hIGF-1R-Fc
T5 construct: also called hIGF-1R-Fc; SDWT; not shown: human IgG1 Fc, C-terminal tag
T5 sequence (P08069 31-933): as the sequence (P08069 31-933 H494E) above, with E464H counted along it
Protocol: (§3) The dilutions were added to the plates in duplicate at 100 μL/well and the plates were incubated at RT for 1 hour. The plates were then washed four times with 200 μL/well PBST. An HRP-conjugated anti-Histag antibody (Penta-His HRP Conjugate, QIAGEN, Cat. No. 1014992) was diluted 1:1000 in PBST and added to plates at 100 μL/well, and the plates were incubated at RT for one hour. The plates were then washed four times with 200 μL/well PBST. SureBlue Reserve TMB Microwell Peroxidase Substrate (KPL, Cat. No. 53-00-01) was added to plates at 100 μL/well followed by 1% phosphoric acid at 100 μL/well once the desired reaction was observed. The absorbance of each well was determined at 450 nm, and the results were normalized and plotted against the log of antibody concentration.
(§4) Ligand Blocking Properties.

[6] = target: T6, hIGF-1R-Fc mutant SD001 (Y28A) (human, UniProt P08069 31-933); test: SPR: receptor-Fc captured on M13-C06 chip, then M13-C06 Fab; relative to wild type
T6 construct: not shown: human IgG1 Fc, C-terminal tag
T6 sequence (P08069 31-933 Y58A): as the sequence (P08069 31-933 H494E) above, with Y28A, E464H counted along it
Protocol: as §2

[7] = target: T7, hIGF-1R-Fc mutant SD002 (M156A) (human, UniProt P08069 31-933); test: as above
T7 construct: not shown: human IgG1 Fc, C-terminal tag
T7 sequence (P08069 31-933 M186A): as the sequence (P08069 31-933 H494E) above, with M156A, E464H counted along it
Protocol: as §2

[8] = target: T8, hIGF-1R-Fc mutant SD004 (S210H, A211Q) (human, UniProt P08069 31-933); test: as above
T8 construct: not shown: human IgG1 Fc, C-terminal tag
T8 sequence (P08069 31-933 S240H/A241Q): as the sequence (P08069 31-933 H494E) above, with S210H, A211Q, E464H counted along it
Protocol: as §2

[9] = target: T9, hIGF-1R-Fc mutant SD013 (D405K) (human, UniProt P08069 31-933); test: as above
T9 construct: not shown: human IgG1 Fc, C-terminal tag
T9 sequence (P08069 31-933 D435K): as the sequence (P08069 31-933 H494E) above, with D405K, E464H counted along it
Protocol: as §2

[10] = target: T10, hIGF-1R-Fc mutant SD017 (I650S) (human, UniProt P08069 31-933); test: as above
T10 construct: not shown: human IgG1 Fc, C-terminal tag
T10 sequence (P08069 31-933 I680S): as the sequence (P08069 31-933 H494E) above, with E464H, I650S counted along it
Protocol: as §2

[11] = target: T11, hIGF-1R-Fc mutant SD018 (E665A) (human, UniProt P08069 31-933); test: as above
T11 construct: not shown: human IgG1 Fc, C-terminal tag
T11 sequence (P08069 31-933 E695A): as the sequence (P08069 31-933 H494E) above, with E464H, E665A counted along it
Protocol: as §2

human IGF-1R(1-903)-Fc [12] = target: T5, human IGF-1R(1-903)-Fc; test: IGF-1 blocking ELISA: antibody titrated in 320 nM IGF-1 His on biotinylated hIGF-1R-Fc on streptavidin plates, bound ligand detected with anti-His-HRP
Protocol: as §3, §4

T1 sequence (P08069 31-933 D491A/V492T): as the sequence (P08069 31-933 H494E) above, with D461A, V462T, E464H counted along it

Row | Binder | binding result [1] | EC50 [2] | binding result [3] | EC50 [4] | Kd (sIGF-1R(1-903)) | n (#C06 specific binding sites) (sIGF-1R(1-903)) | IC50 (read off the curve) (human IGF-1R(1-903)-Fc [5]) | Biacore Relative RUmax [6] | Biacore Relative RUmax [7] | Biacore Relative RUmax [8] | Biacore Relative RUmax [9] | Biacore Relative RUmax [10] | Biacore Relative RUmax [11] | IC50 (read off the curve) (human IGF-1R(1-903)-Fc [12])
1 | M13-C06 antibody (antibody, V domains shown, Fully human full-length antibody (ATCC PTA-7444); also called M13.C06.G4.P.agly; M13-C06.G4P.agly) VH: EVQLLESGGGLVQPGGSLRLSCAASGFTFSIYRMQWVRQAPGKGLEWVSGISPSGGTTWYADSVKGRFTISRDNSKNTLYLQMNSLRAEDTAVYYCARWSGGSGYAFDIWGQGTMVTVSS VL: DIQMTQSPLSLSASVGDRVTITCQASRDIRNYLNWYQQKPGKAPKLLIYDASSLQTGVPSRFGGSGSGTDFSFTIGSLQPEDIATYYCQQFDSLPHTFGQGTKLEIK | no binding | < 1000 pM | no binding | 200 pM | 100 pM | 1 | ~1000 pM |  |  |  |  |  |  | 
2 | M13-C06 Fab (Fab, V domains shown, Fab made by enzymatic digestion of the IgG) VH: EVQLLESGGGLVQPGGSLRLSCAASGFTFSIYRMQWVRQAPGKGLEWVSGISPSGGTTWYADSVKGRFTISRDNSKNTLYLQMNSLRAEDTAVYYCARWSGGSGYAFDIWGQGTMVTVSS VL: DIQMTQSPLSLSASVGDRVTITCQASRDIRNYLNWYQQKPGKAPKLLIYDASSLQTGVPSRFGGSGSGTDFSFTIGSLQPEDIATYYCQQFDSLPHTFGQGTKLEIK |  |  |  |  | 600 pM | 2 |  | 0.6 | 1.2 | 0.8 | 0.7 | 2 | 1.7 | ~1000 pM
